Biological target: GST-FKBP12
Test: AUC; sedimentation equilibrium of GST-FKBP12, seven serial two-fold dilutions from 320 µM, 3000-12 000 r.p.m., about 14 h, absorbance at 230 and 280 nm, Sedphat

- stoichiometry N: 2
Substance: GST-FKBP12

Reference: PMC10150220
